How the values were obtained:
[1] = test system: c-Src; assay: phosphorylation enrichment, bacterial display (enrichment ratio); higher = better substrate or ligand; peptides without Tyr show the background
[2] = test system: Fer (mouse); assay: as above
[3] = target: Hck (UniProt P08631); assay: as above
[4] = target: Jak2 (UniProt O60674); assay: as above
[5] = target: MERTK (UniProt Q12866); assay: as above
[6] = target: Fes (UniProt P07332); assay: as above
[7] = target: EPHB2 (UniProt P29323); assay: as above
[8] = target: Fyn (UniProt P06241); assay: as above
[9] = test system: AncSZ; assay: as above
[10] = test system: c-Abl (mouse); assay: as above
[11] = target: FGFR1 (UniProt P11362); assay: as above
[12] = target: FGFR3 (UniProt P22607); assay: as above
[13] = target: EPHB1 (UniProt P54762); assay: as above
[14] = target: Grb2 SH2 (UniProt P62993); assay: SH2 binding enrichment of the phosphorylated peptide, bacterial display (enrichment ratio); higher = better substrate or ligand; peptides without Tyr show the background
[15] = target: SHP2-C SH2; assay: as above
[16] = target: c-Src SH2; assay: as above
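Wherever SH2 binding enrichment of the phosphorylated peptide, bacterial display is given: peptide library displayed on the E. coli surface as eCPX fusions, selected cells deep-sequenced, score is each peptide's frequency after selection divided by its frequency in the input.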
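Wherever phosphorylation enrichment, bacterial display is given: 11-residue human phosphosite peptides and single-mutation variants displayed on the E. coli surface, counted by deep sequencing, each peptide's frequency after selection divided by its frequency in the unselected input library; frequency after pTyr selection over input frequency; kinase dosed for 20-30% of maximal phosphorylation in three min.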

Sequence of EPHB1 (P54762 whole entry, looked up): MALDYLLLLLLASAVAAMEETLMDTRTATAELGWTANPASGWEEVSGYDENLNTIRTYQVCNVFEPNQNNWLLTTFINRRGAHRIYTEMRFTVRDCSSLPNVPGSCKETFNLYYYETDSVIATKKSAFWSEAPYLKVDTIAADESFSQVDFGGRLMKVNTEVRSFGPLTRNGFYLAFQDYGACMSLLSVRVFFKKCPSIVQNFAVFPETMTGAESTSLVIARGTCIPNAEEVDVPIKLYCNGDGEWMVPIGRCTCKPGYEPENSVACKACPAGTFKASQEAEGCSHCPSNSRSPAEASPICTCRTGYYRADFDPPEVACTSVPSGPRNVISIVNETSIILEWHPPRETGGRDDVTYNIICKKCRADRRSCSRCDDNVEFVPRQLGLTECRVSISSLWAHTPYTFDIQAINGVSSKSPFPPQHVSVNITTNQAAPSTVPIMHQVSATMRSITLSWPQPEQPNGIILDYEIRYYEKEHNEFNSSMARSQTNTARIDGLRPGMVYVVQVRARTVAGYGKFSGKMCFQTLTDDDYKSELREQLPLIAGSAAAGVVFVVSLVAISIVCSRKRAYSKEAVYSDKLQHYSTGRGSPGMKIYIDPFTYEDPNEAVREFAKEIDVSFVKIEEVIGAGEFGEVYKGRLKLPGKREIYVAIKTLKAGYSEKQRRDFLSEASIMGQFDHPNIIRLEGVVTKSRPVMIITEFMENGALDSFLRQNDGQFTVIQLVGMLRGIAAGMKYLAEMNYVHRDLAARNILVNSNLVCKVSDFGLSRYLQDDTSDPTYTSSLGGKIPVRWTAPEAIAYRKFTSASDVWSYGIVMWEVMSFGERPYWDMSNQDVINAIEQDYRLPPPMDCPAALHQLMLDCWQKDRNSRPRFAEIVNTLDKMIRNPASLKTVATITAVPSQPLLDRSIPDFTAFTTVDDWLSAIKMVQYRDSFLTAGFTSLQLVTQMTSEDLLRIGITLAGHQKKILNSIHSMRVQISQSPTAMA
Sequence of Hck (P08631 whole entry, looked up): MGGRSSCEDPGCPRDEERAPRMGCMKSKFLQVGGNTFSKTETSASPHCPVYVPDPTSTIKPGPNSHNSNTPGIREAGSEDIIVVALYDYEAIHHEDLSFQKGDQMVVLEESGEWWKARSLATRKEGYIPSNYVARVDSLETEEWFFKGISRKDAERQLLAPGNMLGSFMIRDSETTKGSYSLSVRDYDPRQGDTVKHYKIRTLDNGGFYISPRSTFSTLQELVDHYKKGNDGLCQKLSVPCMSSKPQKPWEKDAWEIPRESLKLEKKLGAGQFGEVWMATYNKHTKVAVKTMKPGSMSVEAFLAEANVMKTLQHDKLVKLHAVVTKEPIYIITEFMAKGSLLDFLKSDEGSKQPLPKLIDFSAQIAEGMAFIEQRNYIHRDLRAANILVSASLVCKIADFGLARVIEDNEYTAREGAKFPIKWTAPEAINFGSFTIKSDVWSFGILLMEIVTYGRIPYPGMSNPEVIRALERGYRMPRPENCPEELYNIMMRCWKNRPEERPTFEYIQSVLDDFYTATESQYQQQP
Sequence of FGFR3 (P22607 whole entry, looked up): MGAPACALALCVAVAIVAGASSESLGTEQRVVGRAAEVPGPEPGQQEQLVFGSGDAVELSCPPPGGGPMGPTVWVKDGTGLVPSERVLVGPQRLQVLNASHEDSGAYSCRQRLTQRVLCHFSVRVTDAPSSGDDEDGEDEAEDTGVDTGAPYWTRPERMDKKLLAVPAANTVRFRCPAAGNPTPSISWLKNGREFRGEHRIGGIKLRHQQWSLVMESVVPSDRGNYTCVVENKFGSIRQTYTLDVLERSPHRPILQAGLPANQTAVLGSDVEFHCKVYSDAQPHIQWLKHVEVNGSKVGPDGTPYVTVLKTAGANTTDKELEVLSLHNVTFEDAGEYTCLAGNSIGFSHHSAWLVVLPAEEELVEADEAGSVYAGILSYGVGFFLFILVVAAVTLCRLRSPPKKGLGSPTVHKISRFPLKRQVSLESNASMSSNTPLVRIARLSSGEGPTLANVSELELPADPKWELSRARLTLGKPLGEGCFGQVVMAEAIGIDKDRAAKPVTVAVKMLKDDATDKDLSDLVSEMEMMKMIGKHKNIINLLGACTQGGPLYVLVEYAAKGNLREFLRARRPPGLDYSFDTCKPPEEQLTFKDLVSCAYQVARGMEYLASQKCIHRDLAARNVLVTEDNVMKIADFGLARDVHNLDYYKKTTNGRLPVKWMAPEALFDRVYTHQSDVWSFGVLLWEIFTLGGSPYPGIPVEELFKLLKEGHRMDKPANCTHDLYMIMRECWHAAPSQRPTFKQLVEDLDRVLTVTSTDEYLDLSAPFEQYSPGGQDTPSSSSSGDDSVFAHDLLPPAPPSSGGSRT
Sequence of FGFR1 (P11362 whole entry, looked up): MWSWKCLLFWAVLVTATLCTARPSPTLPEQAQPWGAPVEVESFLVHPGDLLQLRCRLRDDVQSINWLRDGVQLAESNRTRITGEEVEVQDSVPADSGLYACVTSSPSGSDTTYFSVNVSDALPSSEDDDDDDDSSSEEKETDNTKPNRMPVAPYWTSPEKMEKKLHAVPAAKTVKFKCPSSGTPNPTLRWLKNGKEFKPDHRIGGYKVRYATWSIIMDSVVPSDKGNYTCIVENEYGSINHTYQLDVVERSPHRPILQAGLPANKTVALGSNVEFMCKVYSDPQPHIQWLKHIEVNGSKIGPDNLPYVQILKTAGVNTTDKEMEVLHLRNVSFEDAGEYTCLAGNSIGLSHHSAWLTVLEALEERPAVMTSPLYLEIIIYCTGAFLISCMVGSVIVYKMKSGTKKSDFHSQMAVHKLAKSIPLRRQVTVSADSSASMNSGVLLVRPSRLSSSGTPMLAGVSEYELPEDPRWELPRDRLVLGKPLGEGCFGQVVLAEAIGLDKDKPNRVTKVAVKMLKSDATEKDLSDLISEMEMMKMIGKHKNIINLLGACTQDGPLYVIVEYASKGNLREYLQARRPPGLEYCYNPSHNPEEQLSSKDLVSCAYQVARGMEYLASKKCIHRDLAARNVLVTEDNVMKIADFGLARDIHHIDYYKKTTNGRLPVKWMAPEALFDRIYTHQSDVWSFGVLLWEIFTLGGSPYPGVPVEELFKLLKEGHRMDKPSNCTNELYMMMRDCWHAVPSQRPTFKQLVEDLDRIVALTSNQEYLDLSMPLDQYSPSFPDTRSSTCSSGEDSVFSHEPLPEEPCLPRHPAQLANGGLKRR
Sequence of Jak2 (O60674 whole entry, looked up): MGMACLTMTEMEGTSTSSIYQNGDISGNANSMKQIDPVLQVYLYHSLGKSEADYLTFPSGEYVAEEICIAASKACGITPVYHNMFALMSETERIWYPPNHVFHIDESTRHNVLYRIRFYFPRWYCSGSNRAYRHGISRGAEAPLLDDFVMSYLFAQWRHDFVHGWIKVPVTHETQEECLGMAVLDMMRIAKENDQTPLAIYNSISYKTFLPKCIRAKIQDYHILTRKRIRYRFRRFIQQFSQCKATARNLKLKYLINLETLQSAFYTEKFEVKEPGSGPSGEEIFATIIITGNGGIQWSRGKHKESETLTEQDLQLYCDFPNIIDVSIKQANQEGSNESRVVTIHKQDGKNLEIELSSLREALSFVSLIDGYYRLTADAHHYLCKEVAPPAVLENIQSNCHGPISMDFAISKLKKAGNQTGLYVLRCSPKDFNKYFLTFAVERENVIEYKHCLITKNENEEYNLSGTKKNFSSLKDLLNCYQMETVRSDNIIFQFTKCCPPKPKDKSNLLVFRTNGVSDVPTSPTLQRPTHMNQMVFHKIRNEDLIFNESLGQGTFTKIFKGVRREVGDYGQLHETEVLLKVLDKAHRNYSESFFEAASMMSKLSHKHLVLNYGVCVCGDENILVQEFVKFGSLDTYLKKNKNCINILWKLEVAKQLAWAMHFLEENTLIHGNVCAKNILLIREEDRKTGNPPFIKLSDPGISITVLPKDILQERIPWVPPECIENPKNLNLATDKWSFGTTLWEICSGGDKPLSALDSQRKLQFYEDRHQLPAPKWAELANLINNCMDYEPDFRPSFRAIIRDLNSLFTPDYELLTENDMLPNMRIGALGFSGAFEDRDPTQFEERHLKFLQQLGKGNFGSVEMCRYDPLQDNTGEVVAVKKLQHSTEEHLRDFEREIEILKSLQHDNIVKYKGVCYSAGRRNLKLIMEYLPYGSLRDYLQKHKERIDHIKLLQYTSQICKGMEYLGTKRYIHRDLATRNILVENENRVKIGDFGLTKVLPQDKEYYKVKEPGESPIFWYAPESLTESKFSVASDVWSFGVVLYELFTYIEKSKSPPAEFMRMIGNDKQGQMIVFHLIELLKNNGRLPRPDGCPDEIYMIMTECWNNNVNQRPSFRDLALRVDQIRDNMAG
Sequence of Fyn (P06241 whole entry, looked up): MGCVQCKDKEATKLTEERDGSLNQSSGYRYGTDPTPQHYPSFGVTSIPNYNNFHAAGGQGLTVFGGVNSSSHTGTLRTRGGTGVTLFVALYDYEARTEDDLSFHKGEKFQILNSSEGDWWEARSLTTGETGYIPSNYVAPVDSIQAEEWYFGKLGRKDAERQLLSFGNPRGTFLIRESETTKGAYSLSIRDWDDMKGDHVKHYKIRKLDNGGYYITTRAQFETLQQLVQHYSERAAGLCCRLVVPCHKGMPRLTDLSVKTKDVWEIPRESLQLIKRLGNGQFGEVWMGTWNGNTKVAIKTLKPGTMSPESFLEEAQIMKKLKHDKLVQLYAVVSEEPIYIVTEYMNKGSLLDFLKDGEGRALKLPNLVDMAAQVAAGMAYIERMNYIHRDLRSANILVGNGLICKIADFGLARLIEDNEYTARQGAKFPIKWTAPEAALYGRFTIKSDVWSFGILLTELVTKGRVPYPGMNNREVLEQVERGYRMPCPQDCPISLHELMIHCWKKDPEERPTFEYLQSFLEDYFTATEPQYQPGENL

| SH2 binding enrichment [14] | SH2 binding enrichment [15] | SH2 binding enrichment [16] | Sequence | phosphorylation enrichment [1] | phosphorylation enrichment [2] | phosphorylation enrichment [3] | phosphorylation enrichment [4] | phosphorylation enrichment [5] | phosphorylation enrichment [6] | phosphorylation enrichment [7] | phosphorylation enrichment [8] | phosphorylation enrichment [9] | phosphorylation enrichment [10] | phosphorylation enrichment [11] | phosphorylation enrichment [12] | phosphorylation enrichment [13] |
| --- | --- | --- | --- | --- | --- | --- | --- | --- | --- | --- | --- | --- | --- | --- | --- | --- |
| 0.852 | 0.681 | 0.549 | FADIAYNYRHA [PAH_Y166_G171A] | 0.503 | 0.424 | 0.415 | 0.648 | 0.466 | 0.779 | 0.437 | 0.425 | 0.578 | 0.474 | 0.322 | 0.542 | 0.593 |
| 1.32 | 1.03 | 0.564 | LKGIRYLTSGL [PIGA_Y82_R77L] | 0.762 | 1.01 | 0.937 | 0.959 | 0.644 | 1.09 | 0.913 | 1.05 | 1.03 | 1.28 | 0.691 | 0.452 | 1.12 |
| 0.838 | 0.997 | 0.71 | MSIWPYLQKID [MFSD8_Y63] | 0.323 | 0.362 | 0.468 | 0.627 | 0.302 | 0.854 | 0.472 | 0.329 | 0.789 | 0.699 | 0.422 | 0.599 | 0.667 |
| 0.726 | 0.585 | 0.528 | KQINDYVEKGT [SERPINA1_Y184] | 0.478 | 0.536 | 0.433 | 0.72 | 0.374 | 0.905 | 0.431 | 0.44 | 0.733 | 0.546 | 0.402 | 0.58 | 0.491 |
| 0.82 | 0.871 | 0.858 | ATGGFYSYGGG [KRT24_Y120] | 1.26 | 4.4 | 1.8 | 0.858 | 11.6 | 1.11 | 0.885 | 2.39 | 0.906 | 0.763 | 0.506 | 0.659 | 0.881 |
| 0.762 | 0.602 | 0.473 | LEIETYRRLLD [KRT12_Y429] | 0.369 | 0.471 | 0.497 | 1.01 | 0.367 | 1.03 | 0.549 | 0.468 | 0.854 | 0.656 | 0.45 | 0.627 | 0.616 |
| 0.528 | 0.673 | 0.335 | PTEAQYRFIYM [PTPN11_Y511_Q506P] | 1.75 | 1.54 | 1.35 | 2.37 | 1.18 | 2.2 | 0.777 | 1.04 | 2.44 | 1.98 | 3.16 | 2.82 | 1.08 |
| 0.973 | 0.566 | 9.33 | WNEVGYDDIGG [VCP_Y203_L198W] | 0.502 | 0.53 | 0.538 | 1.14 | 0.406 | 1.27 | 0.515 | 0.422 | 1.07 | 0.737 | 0.557 | 0.724 | 0.608 |
| 0.893 | 0.359 | 0.373 | LRGVIYVILRK [PMP22_Y153_S149R] | 0.713 | 0.577 | 0.509 | 1.15 | 0.393 | 1.09 | 0.551 | 0.65 | 2.21 | 0.778 | 0.665 | 0.833 | 0.58 |
| 0.765 | 0.526 | 0.586 | WGLCSYYETSK [MAGED2_Y448_R446C] | 0.712 | 0.572 | 0.58 | 1.35 | 0.56 | 1.31 | 0.73 | 0.488 | 1.38 | 0.818 | 0.76 | 1.02 | 0.865 |
| 0.918 | 0.759 | 0.503 | LIDGFYRLTAD [JAK2_Y373_YF] | 0.86 | 0.523 | 0.807 | 1.29 | 0.741 | 1.51 | 0.883 | 0.698 | 1.29 | 0.816 | 0.754 | 0.991 | 0.747 |
| 0.704 | 0.561 | 0.678 | GADAIYDHINE [UQCR10_Y44] | 4.96 | 2.82 | 6.65 | 0.777 | 3.14 | 0.953 | 1.03 | 5.57 | 1.03 | 0.689 | 0.5 | 0.563 | 0.91 |
| 0.399 | 0.272 | 0.433 | PLDGEYSTLQI [TP53_Y327_F328S] | 2.97 | 3.56 | 3.08 | 1.33 | 0.75 | 1.53 | 1.17 | 2.2 | 2.13 | 1.33 | 1.77 | 1.18 | 1.27 |
| 1.15 | 0.806 | 0.672 | ASLLPYFPAIM [IPO4_Y518] | 0.457 | 0.532 | 0.484 | 0.802 | 0.364 | 0.938 | 0.576 | 0.544 | 0.782 | 0.626 | 0.537 | 0.694 | 0.479 |

The remaining lines, values behind:

| Sequence | SH2 binding enrichment [14] | SH2 binding enrichment [15] | SH2 binding enrichment [16] | phosphorylation enrichment [1] | phosphorylation enrichment [2] | phosphorylation enrichment [3] | phosphorylation enrichment [4] | phosphorylation enrichment [5] | phosphorylation enrichment [6] | phosphorylation enrichment [7] | phosphorylation enrichment [8] | phosphorylation enrichment [9] | phosphorylation enrichment [10] | phosphorylation enrichment [11] | phosphorylation enrichment [12] | phosphorylation enrichment [13] |
| --- | --- | --- | --- | --- | --- | --- | --- | --- | --- | --- | --- | --- | --- | --- | --- | --- |
| HNLDFYKQTTN [FGFR3_Y648_K650Q_YF] | 0.874 | 0.488 | 0.395 | 0.409 | 0.409 | 0.455 | 0.793 | 0.581 | 1.35 | 0.494 | 0.368 | 0.948 | 0.683 | 0.581 | 0.631 | 0.623 |
| DGKFSYLKVGH [GRM3_Y480_G475D_YF] | 0.838 | 0.671 | 0.421 | 0.411 | 0.338 | 0.337 | 0.599 | 0.505 | 1.16 | 0.388 | 0.33 | 0.678 | 0.575 | 0.467 | 0.478 | 0.444 |
| QLDQHYLLVPE [DDX49_Y223_R222H] | 0.815 | 0.436 | 0.604 | 0.654 | 0.643 | 0.893 | 1.14 | 0.825 | 1.1 | 1.09 | 0.955 | 1.16 | 0.642 | 1.6 | 2.09 | 1.21 |
| LWKWKYEELKE [CCDC102B_Y299] | 1.43 | 0.808 | 0.81 | 0.27 | 0.712 | 0.513 | 1.09 | 0.336 | 1.73 | 0.493 | 0.631 | 1.28 | 0.725 | 0.573 | 1.24 | 0.92 |
| WRPFGYPRCRR [BCS1L_Y181_R184C] | 0.714 | 0.39 | 0.459 | 0.528 | 0.447 | 0.454 | 0.485 | 0.505 | 0.509 | 0.478 | 0.498 | 0.599 | 0.403 | 0.505 | 0.459 | 0.444 |
| ERQIRYLNHQL [CEP152_Y268] | 0.842 | 0.683 | 0.512 | 0.399 | 0.347 | 0.4 | 0.413 | 0.382 | 0.527 | 0.354 | 0.396 | 0.557 | 0.523 | 0.412 | 0.39 | 0.373 |
| TKDTFYKQRMF [GBA_Y451_P454R] | 0.83 | 0.68 | 0.396 | 0.351 | 0.416 | 0.339 | 0.404 | 0.372 | 0.579 | 0.406 | 0.344 | 0.56 | 0.458 | 0.41 | 0.391 | 0.359 |
| RHRSGYVLIAM [EFR3A_Y73] | 2.09 | 2.72 | 1.73 | 0.284 | 1.1 | 0.638 | 0.79 | 0.475 | 1.37 | 0.708 | 0.605 | 1.31 | 0.528 | 0.737 | 0.773 | 0.307 |
| LAVVDYIRRQK [ATM_Y1915_M1916I] | 0.441 | 0.461 | 0.338 | 1.21 | 0.839 | 0.749 | 0.855 | 0.863 | 1.24 | 1.42 | 0.649 | 1.06 | 1.37 | 0.791 | 0.92 | 0.918 |
| HKETGYVVERP [BCLAF1_Y466_L461H] | 0.747 | 0.401 | 0.394 | 0.652 | 0.439 | 0.448 | 1.14 | 0.445 | 1.36 | 0.502 | 0.497 | 0.746 | 1.28 | 0.582 | 0.656 | 0.475 |
| HKLSSYEYDFE [BTK_Y40_Y39S] | 0.69 | 0.411 | 1.33 | 1.43 | 1.03 | 0.952 | 1.38 | 0.911 | 1.51 | 0.789 | 0.72 | 1.84 | 0.966 | 0.952 | 1.04 | 0.822 |
| TIQDAYMHITS [ADCY10_Y318_A313T] | 0.902 | 0.895 | 1.26 | 0.451 | 0.416 | 0.496 | 0.676 | 0.529 | 0.799 | 0.398 | 0.51 | 0.7 | 0.525 | 0.624 | 0.43 | 0.479 |
| KWRGQYDVAIE [BTK_Y425_K430E] | 1.01 | 0.823 | 3.07 | 0.437 | 0.505 | 0.509 | 0.708 | 0.424 | 0.774 | 0.531 | 0.39 | 0.631 | 0.537 | 0.448 | 0.481 | 0.441 |
| QRMGTYGVRAA [ICAM2_Y260] | 1 | 0.881 | 0.724 | 1.58 | 0.852 | 3.44 | 0.983 | 0.618 | 1.14 | 0.657 | 2.06 | 1.26 | 0.637 | 0.754 | 0.702 | 0.685 |
| GFEVVYVTEPI [HSP90AB1_Y512_M513V] | 0.802 | 0.454 | 0.495 | 0.591 | 0.444 | 0.549 | 0.983 | 0.386 | 0.959 | 0.465 | 0.424 | 1.1 | 0.641 | 0.443 | 0.605 | 0.344 |
| DTKAFYPEEIS [HSPA1A_Y115_E110D] | 0.927 | 0.574 | 0.445 | 0.523 | 0.479 | 0.393 | 0.933 | 0.432 | 1.1 | 0.579 | 0.441 | 1.05 | 0.752 | 0.482 | 0.88 | 0.456 |
| RGFDTYFGFLL [ARSB_Y165_YF] | 0.899 | 0.828 | 0.578 | 6.93 | 4.06 | 6.53 | 4.64 | 5.24 | 1.53 | 4.31 | 8.78 | 1.68 | 1.14 | 3.4 | 3.25 | 4.25 |
| SPPILYSFYLN [FCRL6_Y239_D244N] | 1.63 | 1.69 | 0.824 | 2.87 | 3.7 | 2.06 | 1.22 | 9.41 | 1.12 | 4.36 | 2.18 | 1.21 | 1.5 | 0.807 | 0.882 | 3.78 |
| DPADRYLTEQF [CDKL5_Y286_C291Y_YF] | 0.889 | 0.618 | 0.571 | 0.594 | 0.513 | 0.558 | 1.11 | 0.6 | 1.35 | 0.747 | 0.527 | 1.11 | 0.733 | 0.591 | 0.645 | 0.514 |

— the supplement of paper PMC10065799, “High-throughput profiling of sequence recognition by tyrosine kinases and SH2 domains using bacterial peptide display” (eLife, 2023)
